In US20060026702A1, “Phosphoinositide 3-kinase mediated inhibition of GPCRs” (DUKE UNIVERSITY, priority 2002, published 2006):

Key:
Format in all cases: cell-based
β2AR = β2AR sequestration in HEK-293 cells by 125I-Cyanopindolol binding; settings: 1 μM isoproterenol, 0-30 min; FLAG-HEAT co-transfected
Method: Determination of β2AR Sequestration in HEK-293 Cells by ^125I-Cyanopindolol (CYP) Binding—β2AR sequestration was performed as previously described. Briefly, HEK-293 cells were plated at a density of 2.5×10^6 cells/dish and transfected the following day with plasmids containing either the β2AR (150-250 ng), β2AR (250 ng) and HEAT domain (4 μg), PI3Kγ (4.0 μg) or ΔPI3Kγ (4.0 μg) cDNAs. Twelve hours after transfection cells were split into six well Falcon plates at a density of 750,000 cells/well. […] To determine the amount of internalized receptor, 100 μl aliquots of whole cells were added to 150 μl of binding buffer (75 mM Tris-HCl, 10 mM MgCl2, 5 mM EDTA (pH 7.5)). Total binding was determined in the presence of 175 pM ^125I-CYP alone, the number of internalized receptors were determined by using 175 pM ^125I-CYP plus 100 nM CGP12177, and non-specific binding was determined using 175 pM ^125I-CYP plus 1 μM propranolol. Sequestration was calculated as the ratio of (specific receptor binding of ^125I-CYP in the presence of CGP12177)/(specific receptor binding of ^125I-CYP in the absence of CGP12177).

β-arrestin2-GFP = β-arrestin2-GFP recruitment to the membrane by confocal microscopy; settings: isoproterenol; co-expressed mutant protein
Method: Confocal Microscopy—Confocal microscopy was performed as previously described. […] Cells were split into 35 mm^2 dishes with glass bottoms for observation using a Zeiss LSM-510 confocal microscope. […] For analyses of the HEAT domain, HEK 293 cells were transfected with the plasmids containing cDNAs encoding either the β2AR-YFP (2 μg) or β2AR-YFP (2 μg) and HEAT domain (4 μg). Cells were plated onto glass bottom dishes for observation in the confocal microscope. […] Cells were permeablized with 0.1% Triton X-100 in phosphate-buffered saline for 20 min, incubated in 1% BSA in phosphate-buffered saline for 1 hr. Cells were washed with 1× phosphate-buffered saline and incubated with anti-HA or anti-FLAG monoclonal antibody (1:250) with 1% BSA in 1× phosphate-buffered saline for 1 hr. Cells were washed and incubated with goat anti-mouse IgG conjugated with Texas Red (1:500) (Molecular Probes) for 1 hr. Samples were visualized using single sequential line excitation filters at 488 and 568 nm and emission filter sets at 505-550 nm for GFP detection and 585 for Texas Red detection.
To exclude these possibilities cells were co-transfected with plasmids containing FLAG β2AR, β-arrestin2-GFP and either PI3Kγ or ΔPI3Kγ cDNAs, and were monitored for the recruitment of β-arrestin2-GFP using confocal microscopy. […] Marked redistribution of β-arrestin2-GFP to the membrane occurred within 2.5 minutes. […]

βARK1 = βARK1 recruitment to the membrane (immunoblot of membrane fraction); settings: 10 μM isoproterenol; HEAT 4 μg
Method: Cytosolic and Membrane Fractionation—Cell monolayers were scraped in 1 ml of buffer containing 25 mM Tris-HCl (pH 7.5), 5 mM EDTA, 5 mM EGTA, 1 mM phenylmethylsulfonyl fluoride, 2 μg/ml each of leupeptin and aprotinin and disrupted further by using Dounce homogenizer. Intact cells and nuclei were removed by-centrifugation at 1,000×g for 5 min. The collected supernatant was further subject to a centrifugation at 38,000×g for 25 min. The pellet was resuspended in lysis buffer (1% Nonidet P-40, 10% glycerol, 137 mM NaCl, 20 mM Tris-Cl (ph 7.4), 1 mM phenylmethylsulfonyl fluoride, 20 mM NaF, 1 mM sodium pyrophosphate, 1 mM sodium orthovanadate and 2 μg/ml each of aprotinin and leupeptin) and used as membrane fraction and the supernatant was diluted in lysis buffer and used as the cytosolic fraction. Heart samples also underwent through similar procedures to obtain membrane and cytosolic fractions. Purity of the membrane fraction preparation was confirmed by measuring enzyme activity of the membrane marker enzyme K^+-stimulated p-nitrophenylphosphatase (membrane fraction: 9.4 μmol/mg protein per min, cytosol: 2.6 μmol/mg of protein/min). […]
Cytosolic and membrane fractions were prepared and analyzed for βARK1 associated PI3K activity. […]

B1: HEAT: 197 amino acid HEAT domain of PI3Kγ, FLAG epitope-tagged (SEQ ID NO: 2), overexpressed in cells (protein, listed as Homo sapiens)
chain: MDYKDDDDKHPIALPKHQPTPDDRVRAEMPNQLRKQLEAIIATDTAEDKELLWHFRYESLKHPKAYPKLFSSVKWGQQEIVAKTYQLLARREVWDQSALDVGLTMQLLDCNFSDENVRAIAVQKLESLEDDDVLHYLLQLVQAVKFEPYHDSALARFLLKRGLRNKRIGHFLFWFLRSEIAQSRHYQQRFAVILEAYLRGCGTA
modifications: FLAG tag
attenuation in the rate of β2AR sequestration (β2AR): > 60% | recruitment of β-arrestin2-GFP to the receptor/membrane after agonist (β-arrestin2-GFP): did not affect | membrane recruitment of βARK1 following isoproterenol (βARK1): no effect
